What was measured:
[1] = target: the molecule itself; assay: SDS-resistant dimer on SDS-PAGE; in vivo expression, 35S pulse-chase labelling with rifampicin; whole cells or fractions TCA precipitated, Tricine-SDS-PAGE, autoradiography
[2] = target: the molecule itself; assay: SDS-resistant dimer on SDS-PAGE; YohPHis expressed in vivo; whole cells or cell fractions (INV), Tricine-SDS-PAGE, western blot with anti-His antibodies

B1: YohP (nontagged) (natural protein, E. coli, UniProt C1P609 1-27, looked up)
chain: MKIILWAVLIIFLIGLLVVTGVFKMIF
notes: YohP, small membrane protein of E. coli, 27 amino acids; also called nontagged YohP; source: E. coli C43(DE3) with pET19b-YohP, expressed in vivo, pulse-labelled with 35S methionine/cysteine; whole cells or cell fractions
stoichiometry N [1]: 2

B2: His-tagged YohP (YohPHis) (natural protein, E. coli, UniProt C1P609 1-27, looked up)
chain: MKIILWAVLIIFLIGLLVVTGVFKMIF
notes: YohP, small membrane protein of E. coli, 27 amino acids; also called YohP_(His6); source: E. coli, expressed in vivo from pBad24 (arabinose) or pET19b (IPTG); whole cells TCA precipitated or cell fractions (INV); not shown: His6, C-terminal, kept
stoichiometry N [2]: 2

From publication PMC7549839, “Posttranslational insertion of small membrane proteins by the bacterial signal recognition particle” (PLoS Biology, 2020)
